The values that follow come from the supplement of paper PMC9112550, “Optimization of the antimicrobial peptide Bac7 by deep mutational scanning” (BMC Biology, 2022).

The data set concerns Escherichia coli TOP10. The data set can be described thus: shrunken log2 fold change of peptide-encoding DNA abundance (4.5 h post-induction vs induction); higher = less antimicrobial activity (less host growth inhibition). To be noted: time post-induction: 4.5 h; library: site-saturation at positions 5, 18, 19, 20.
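Note: peptides expressed intracellularly from a pBAD plasmid library in pooled LB shake-flask culture, induced with 0.3% L-arabinose, DNA abundance read by NGS, three biological replicates, DESeq2 with apeglm shrinkage.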

In the case of RRIRIRPPRLPRPRPRPERVPRP, the “shrunken log2 fold change” value came out at 0.089.

In the case of RRIRQRPPRLPRPRPRPINQPRP, the “shrunken log2 fold change” value is -0.314.

For RRIRYRPPRLPRPRPRPTVTPRP, the “shrunken log2 fold change” value was -0.283.

As for RRIRFRPPRLPRPRPRPKFSPRP, the “shrunken log2 fold change” value is -0.0365.

In the case of RRIRWRPPRLPRPRPRPLHDPRP, the “shrunken log2 fold change” value is 0.387.

Regarding RRIRYRPPRLPRPRPRPFWWPRP, the “shrunken log2 fold change” value was -0.102.

With RRIRCRPPRLPRPRPRPHPDPRP, the “shrunken log2 fold change” value is -0.0728.

As to RRIRWRPPRLPRPRPRPRRYPRP, the “shrunken log2 fold change” value came to 0.18.

As for RRIRHRPPRLPRPRPRPEPNPRP, the “shrunken log2 fold change” value turned out to be 0.0235.

Take RRIRLRPPRLPRPRPRPYAQPRP: the “shrunken log2 fold change” value was -0.599.

In the case of RRIRCRPPRLPRPRPRPMKVPRP, the “shrunken log2 fold change” value was -0.126.

Turning to RRIRSRPPRLPRPRPRPCQNPRP, the “shrunken log2 fold change” value was 0.0167.

Turning to RRIRIRPPRLPRPRPRPMACPRP, the “shrunken log2 fold change” value is -0.321.

Turning to RRIRLRPPRLPRPRPRPAQTPRP, the “shrunken log2 fold change” value was -0.00496.

RRIRCRPPRLPRPRPRPHKGPRP: the “shrunken log2 fold change” value is -0.363.

Regarding RRIRIRPPRLPRPRPRPTPMPRP, the “shrunken log2 fold change” value was -0.102.

For the sequence RRIRMRPPRLPRPRPRPSQYPRP, the “shrunken log2 fold change” value was -0.191.

Regarding RRIRDRPPRLPRPRPRPNNAPRP, the “shrunken log2 fold change” value was -0.204.

Take RRIRNRPPRLPRPRPRPFQVPRP: the “shrunken log2 fold change” value was -0.134.

For RRIRMRPPRLPRPRPRPASFPRP, the “shrunken log2 fold change” value came to 0.126.

Regarding RRIRHRPPRLPRPRPRPEHSPRP, the “shrunken log2 fold change” value is -0.179.

Take RRIRERPPRLPRPRPRPYRFPRP: the “shrunken log2 fold change” value was -0.708.

For RRIRKRPPRLPRPRPRPVNIPRP, the “shrunken log2 fold change” value is -0.0139.

For RRIRYRPPRLPRPRPRPDWKPRP, the “shrunken log2 fold change” value is -0.208.

Take RRIRIRPPRLPRPRPRPENPPRP: the “shrunken log2 fold change” value was -0.695.

Consider RRIRPRPPRLPRPRPRPRLYPRP, for which the “shrunken log2 fold change” value was 0.127.

Take RRIRIRPPRLPRPRPRPRNWPRP: the “shrunken log2 fold change” value worked out at 0.18.

Regarding RRIRKRPPRLPRPRPRPVMYPRP, the “shrunken log2 fold change” value was -0.144.

Consider RRIRFRPPRLPRPRPRPKQLPRP, for which the “shrunken log2 fold change” value is -0.123.

RRIRERPPRLPRPRPRPCLSPRP: the “shrunken log2 fold change” value came to 0.0657.

Take RRIRPRPPRLPRPRPRPDVPPRP: the “shrunken log2 fold change” value is -0.0575.

RRIRCRPPRLPRPRPRPRQNPRP: the “shrunken log2 fold change” value is 0.226.

In the case of RRIRNRPPRLPRPRPRPQTTPRP, the “shrunken log2 fold change” value is -0.149.

On to RRIRSRPPRLPRPRPRPCVGPRP, for which the “shrunken log2 fold change” value is -0.0336.

On to RRIRKRPPRLPRPRPRPGQCPRP, for which the “shrunken log2 fold change” value was found to be 0.0394.

On to RRIRERPPRLPRPRPRPKFMPRP, for which the “shrunken log2 fold change” value was -0.293.

For RRIRVRPPRLPRPRPRPDEEPRP, the “shrunken log2 fold change” value worked out at 0.393.

RRIRYRPPRLPRPRPRPRYAPRP: the “shrunken log2 fold change” value was -0.0163.

Take RRIRPRPPRLPRPRPRPQDIPRP: the “shrunken log2 fold change” value was -0.0806.

As for RRIRNRPPRLPRPRPRPPYSPRP, the “shrunken log2 fold change” value is -0.604.

Take RRIRYRPPRLPRPRPRPWFKPRP: the “shrunken log2 fold change” value was -0.12.

In the case of RRIRQRPPRLPRPRPRPERWPRP, the “shrunken log2 fold change” value worked out at 0.251.

With RRIRARPPRLPRPRPRPAPVPRP, the “shrunken log2 fold change” value came to 0.627.

As for RRIRYRPPRLPRPRPRPQCAPRP, the “shrunken log2 fold change” value is -0.247.

Consider RRIRSRPPRLPRPRPRPPGGPRP, for which the “shrunken log2 fold change” value came to 0.724.

For RRIRKRPPRLPRPRPRPKNIPRP, the “shrunken log2 fold change” value was -0.253.

Regarding RRIRPRPPRLPRPRPRPDWAPRP, the “shrunken log2 fold change” value came to 0.0079.

For RRIRHRPPRLPRPRPRPVLFPRP, the “shrunken log2 fold change” value was -0.0987.

For the sequence RRIRQRPPRLPRPRPRPDRQPRP, the “shrunken log2 fold change” value worked out at 0.0104.

Take RRIRKRPPRLPRPRPRPHSSPRP: the “shrunken log2 fold change” value stood at 0.0945.

Take RRIRWRPPRLPRPRPRPMPDPRP: the “shrunken log2 fold change” value worked out at 0.173.

On to RRIRLRPPRLPRPRPRPCIKPRP, for which the “shrunken log2 fold change” value was -0.752.

For the sequence RRIRDRPPRLPRPRPRPANCPRP, the “shrunken log2 fold change” value was -0.00155.

For RRIRMRPPRLPRPRPRPRTWPRP, the “shrunken log2 fold change” value stood at 1.11.

Take RRIRIRPPRLPRPRPRPLNPPRP: the “shrunken log2 fold change” value is -0.428.

Regarding RRIRVRPPRLPRPRPRPETVPRP, the “shrunken log2 fold change” value was -0.103.

With RRIRLRPPRLPRPRPRPYETPRP, the “shrunken log2 fold change” value was -0.0853.

Consider RRIRSRPPRLPRPRPRPVRDPRP, for which the “shrunken log2 fold change” value was 0.369.

On to RRIRPRPPRLPRPRPRPDMHPRP, for which the “shrunken log2 fold change” value was -0.042.

For the sequence RRIRDRPPRLPRPRPRPFHCPRP, the “shrunken log2 fold change” value was -0.194.

For the sequence RRIRLRPPRLPRPRPRPQTAPRP, the “shrunken log2 fold change” value came to 0.0246.

Regarding RRIRSRPPRLPRPRPRPTCFPRP, the “shrunken log2 fold change” value amounted to 0.284.

Take RRIRSRPPRLPRPRPRPSSIPRP: the “shrunken log2 fold change” value is -0.379.

With RRIRWRPPRLPRPRPRPEFIPRP, the “shrunken log2 fold change” value amounted to 0.186.

Regarding RRIRERPPRLPRPRPRPVGEPRP, the “shrunken log2 fold change” value is -0.0892.

Consider RRIRMRPPRLPRPRPRPDEYPRP, for which the “shrunken log2 fold change” value is 1.62.

On to RRIRPRPPRLPRPRPRPKGCPRP, for which the “shrunken log2 fold change” value came to 0.394.

Consider RRIRIRPPRLPRPRPRPCQEPRP, for which the “shrunken log2 fold change” value is -0.119.

On to RRIRDRPPRLPRPRPRPQAYPRP, for which the “shrunken log2 fold change” value was 0.18.

In the case of RRIRNRPPRLPRPRPRPRQNPRP, the “shrunken log2 fold change” value was -0.118.

As to RRIRKRPPRLPRPRPRPIQTPRP, the “shrunken log2 fold change” value was determined as 0.0355.

For RRIRTRPPRLPRPRPRPSFIPRP, the “shrunken log2 fold change” value is -0.761.

For the sequence RRIRFRPPRLPRPRPRPPCAPRP, the “shrunken log2 fold change” value came out at 0.576.

With RRIRERPPRLPRPRPRPDYIPRP, the “shrunken log2 fold change” value is -0.0061.

As for RRIRDRPPRLPRPRPRPILIPRP, the “shrunken log2 fold change” value is -0.0335.

RRIRNRPPRLPRPRPRPLARPRP: the “shrunken log2 fold change” value is 0.107.

On to RRIRMRPPRLPRPRPRPRRSPRP, for which the “shrunken log2 fold change” value amounted to 0.438.

In the case of RRIRTRPPRLPRPRPRPCVVPRP, the “shrunken log2 fold change” value was -0.0223.

With RRIRGRPPRLPRPRPRPNAPPRP, the “shrunken log2 fold change” value came to 0.938.

As to RRIRCRPPRLPRPRPRPYPPPRP, the “shrunken log2 fold change” value was -0.631.

Consider RRIRSRPPRLPRPRPRPEMYPRP, for which the “shrunken log2 fold change” value is -0.0223.

Take RRIRWRPPRLPRPRPRPFMTPRP: the “shrunken log2 fold change” value is 0.183.

On to RRIRCRPPRLPRPRPRPLIHPRP, for which the “shrunken log2 fold change” value was -0.842.

As to RRIRLRPPRLPRPRPRPNSVPRP, the “shrunken log2 fold change” value is -0.11.

Regarding RRIRCRPPRLPRPRPRPLSKPRP, the “shrunken log2 fold change” value was -0.103.

For RRIRARPPRLPRPRPRPKKDPRP, the “shrunken log2 fold change” value turned out to be 0.468.

For RRIRRRPPRLPRPRPRPDYWPRP, the “shrunken log2 fold change” value is 0.0192.

Take RRIRYRPPRLPRPRPRPSVGPRP: the “shrunken log2 fold change” value was -0.124.

In the case of RRIRYRPPRLPRPRPRPQMCPRP, the “shrunken log2 fold change” value is -0.0257.

For RRIRTRPPRLPRPRPRPGAQPRP, the “shrunken log2 fold change” value is 0.283.

For the sequence RRIRPRPPRLPRPRPRPYDDPRP, the “shrunken log2 fold change” value is -0.0211.

Consider RRIRIRPPRLPRPRPRPIKCPRP, for which the “shrunken log2 fold change” value was -0.446.

With RRIRFRPPRLPRPRPRPFEQPRP, the “shrunken log2 fold change” value is -0.311.

RRIRYRPPRLPRPRPRPRSPPRP: the “shrunken log2 fold change” value was 0.0591.

For RRIRFRPPRLPRPRPRPFNDPRP, the “shrunken log2 fold change” value is 0.00352.

With RRIRFRPPRLPRPRPRPISIPRP, the “shrunken log2 fold change” value is -0.697.

Regarding RRIRGRPPRLPRPRPRPNDYPRP, the “shrunken log2 fold change” value was -0.0119.

For RRIRNRPPRLPRPRPRPWLAPRP, the “shrunken log2 fold change” value was -0.254.

Take RRIRARPPRLPRPRPRPWTLPRP: the “shrunken log2 fold change” value was -0.256.

Consider RRIRQRPPRLPRPRPRPIDEPRP, for which the “shrunken log2 fold change” value was found to be 3.38.

For RRIRDRPPRLPRPRPRPYWTPRP, the “shrunken log2 fold change” value was -0.195.

For the sequence RRIRFRPPRLPRPRPRPEGGPRP, the “shrunken log2 fold change” value turned out to be 0.586.

On to RRIRARPPRLPRPRPRPNIDPRP, for which the “shrunken log2 fold change” value is -0.0883.

For the sequence RRIRERPPRLPRPRPRPQKDPRP, the “shrunken log2 fold change” value is -0.298.

Regarding RRIRLRPPRLPRPRPRPPMDPRP, the “shrunken log2 fold change” value was 0.0462.

Consider RRIRGRPPRLPRPRPRPMCRPRP, for which the “shrunken log2 fold change” value was 0.393.

RRIRARPPRLPRPRPRPRQEPRP: the “shrunken log2 fold change” value came out at 0.503.

With RRIRIRPPRLPRPRPRPDVTPRP, the “shrunken log2 fold change” value was -0.0322.

Regarding RRIRARPPRLPRPRPRPKVDPRP, the “shrunken log2 fold change” value is -0.0797.

For the sequence RRIRNRPPRLPRPRPRPETPPRP, the “shrunken log2 fold change” value came out at 0.36.

RRIRTRPPRLPRPRPRPPSSPRP: the “shrunken log2 fold change” value is -0.00871.

RRIRLRPPRLPRPRPRPAYLPRP: the “shrunken log2 fold change” value was -0.304.

For the sequence RRIRTRPPRLPRPRPRPVNDPRP, the “shrunken log2 fold change” value turned out to be 0.0249.

Regarding RRIRHRPPRLPRPRPRPTYWPRP, the “shrunken log2 fold change” value amounted to 0.293.

Turning to RRIRYRPPRLPRPRPRPAWVPRP, the “shrunken log2 fold change” value is 0.0366.

As to RRIRLRPPRLPRPRPRPFKTPRP, the “shrunken log2 fold change” value was -0.501.

Take RRIRCRPPRLPRPRPRPCRNPRP: the “shrunken log2 fold change” value was -0.154.

Turning to RRIRGRPPRLPRPRPRPWQEPRP, the “shrunken log2 fold change” value is -0.0457.

In the case of RRIRWRPPRLPRPRPRPKGRPRP, the “shrunken log2 fold change” value is 0.0214.

As to RRIRPRPPRLPRPRPRPKLGPRP, the “shrunken log2 fold change” value was determined as 0.551.

RRIRERPPRLPRPRPRPVEFPRP: the “shrunken log2 fold change” value is -0.309.

Consider RRIRHRPPRLPRPRPRPITVPRP, for which the “shrunken log2 fold change” value was -0.0184.

Consider RRIRARPPRLPRPRPRPTHTPRP, for which the “shrunken log2 fold change” value was 0.664.

For RRIRPRPPRLPRPRPRPPGTPRP, the “shrunken log2 fold change” value is 0.317.

Regarding RRIRDRPPRLPRPRPRPPNNPRP, the “shrunken log2 fold change” value is -0.261.
